According to patent US11975040B2, “Plexin binding regulator” (The University of Tokyo, priority 2016, dated 2024):
Read-outs that look alike come from different tables or passages of the source. Positions of bridges follow the written chain, without caps; N, C: chain ends. Non-standard residues stand in square brackets, D forms with d. Residues, ends and D or L forms follow the SMILES beside them. No end group written: not given here.

Legend:
[1] = stability test with serum protease; type: in vitro ADME; conditions: degradation by serum protease
Method: A stability test, with serum protease, of the cyclic peptide P6 and the cyclic peptide having an intramolecular lactam bridge structure was performed (FIG. 11c).

[2] = molecular target: T1, mouse Plexin B1 and Semaphorin 4D (Mus musculus, UniProt Q8CJH3); test: in vitro pulldown assay of mouse Plexin B1 / Semaphorin 4D interaction (AP activity); type: biochemical; conditions: compared with cyclic peptide P6
T1 sequence (Q8CJH3 20-535 limits assumed): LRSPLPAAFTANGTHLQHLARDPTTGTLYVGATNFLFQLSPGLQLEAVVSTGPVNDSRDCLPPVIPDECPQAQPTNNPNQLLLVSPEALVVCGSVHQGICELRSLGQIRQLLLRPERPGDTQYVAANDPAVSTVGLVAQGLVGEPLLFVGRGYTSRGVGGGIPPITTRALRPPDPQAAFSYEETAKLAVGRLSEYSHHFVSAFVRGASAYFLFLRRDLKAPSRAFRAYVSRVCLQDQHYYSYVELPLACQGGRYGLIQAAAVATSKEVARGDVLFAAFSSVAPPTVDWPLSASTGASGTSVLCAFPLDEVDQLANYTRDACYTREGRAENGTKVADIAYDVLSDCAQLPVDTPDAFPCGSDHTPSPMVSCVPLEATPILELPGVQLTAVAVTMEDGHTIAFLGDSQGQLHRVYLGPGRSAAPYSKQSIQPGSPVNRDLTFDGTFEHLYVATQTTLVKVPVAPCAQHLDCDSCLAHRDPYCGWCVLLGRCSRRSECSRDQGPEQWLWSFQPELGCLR
Method: The effect of the cyclic peptides shown in FIG. 2c on protein-protein interaction (PPI) of Plexin B1 and Semaphorin 4D was studied by in vitro pulldown assay (FIG. 3). • 1. Plexin B1 or Plexin A2 was immobilized on Sepharose beads. • 2. A cyclic peptide that bound to Plexin B1, a negative control peptide, or dimethylsulfoxide (DMSO) was added to Plexin-B1-immobilized beads. • 3. An alkali phosphatase (AP)-fused protein of Semaphorin 4D or Semaphorin 6A was added. • 4. After washing of the resulting beads, an increase in absorbance of the sample was measured at 405 nm to determined AP activity.
High AP activity relates to high interaction (5) between Semaphorin and Plexin and low AP activity relates to […] interaction (6) between Semaphorin and Plexin.

Plexin B1 [3] = test: Kd (s^-1)
Text: (§1) Table printed on a drawing sheet, FIG. 2
Head of the field: Kd (s^-1)
(§2) The sequences from top to bottom are SEQ ID NO: 40, SEQ ID NO: 31, SEQ ID NO: 37, SEQ ID NO: 30, SEQ ID NO: 38, and SEQ ID NO: 39.
(§3) First copying reader's note: The sequences are only the variable region of the cyclic scaffold drawn in panel b, DW(Variable region)CS-NH2 closed by a thioether bridge.
(§4) Where the first naming reader finds the target: description_of_the_figure: the respective amino acid sequence of the cyclic peptides and their binding affinity to Plexin B1

Plexin B1 [4] = test: KD (nM)
Text: as §1
(§5) Head of the field: KD (nM)
as §2, §3, §4

Plexin B1 [5] = test: Ka (µM^-1s^-1)
Text: as §1
Head of the field: Ka (µM^-1s^-1)
as §2, §3, §4

Plexin B1 [6] = test: kd (ms^-1)
Text: (§6) Table printed on a drawing sheet, FIG. 13
Head of the field: kd (ms^-1)
(§7) First copying reader's note: Panel b of FIG. 13; panel a is a bar chart and is left out.

Plexin B1 [7] = test: ka (μM^-1s^-1)
Text: as §6
Head of the field: ka (μM^-1s^-1)
as §7

Plexin B1 [8] = test: kd (s^-1)
Method: (§8) Table printed on a drawing sheet, FIG. 11
Head of the field: kd (s^-1)
(§9) First copying reader's note: Panel a of FIG. 11; the BC8 row is highlighted with a frame on the sheet.
(§10) Where the first naming reader finds the target: passage: its binding affinity to Plexin B1 was analyzed by surface resonance plasmon (SPR) (FIG. 11a)

Plexin B1 [9] = test: KD (nM); remark: listed apart in the source
Method: as §8, §5, §9, §10

Plexin B1 [10] = test: KD (nM); remark: listed apart in the source
Text: as §6, §5, §7

human Plexin B1 [11] = molecular target: T2, human Plexin B1 (human, UniProt O43157 20-535, limits assumed); test: SPR
T2 sequence (looked up): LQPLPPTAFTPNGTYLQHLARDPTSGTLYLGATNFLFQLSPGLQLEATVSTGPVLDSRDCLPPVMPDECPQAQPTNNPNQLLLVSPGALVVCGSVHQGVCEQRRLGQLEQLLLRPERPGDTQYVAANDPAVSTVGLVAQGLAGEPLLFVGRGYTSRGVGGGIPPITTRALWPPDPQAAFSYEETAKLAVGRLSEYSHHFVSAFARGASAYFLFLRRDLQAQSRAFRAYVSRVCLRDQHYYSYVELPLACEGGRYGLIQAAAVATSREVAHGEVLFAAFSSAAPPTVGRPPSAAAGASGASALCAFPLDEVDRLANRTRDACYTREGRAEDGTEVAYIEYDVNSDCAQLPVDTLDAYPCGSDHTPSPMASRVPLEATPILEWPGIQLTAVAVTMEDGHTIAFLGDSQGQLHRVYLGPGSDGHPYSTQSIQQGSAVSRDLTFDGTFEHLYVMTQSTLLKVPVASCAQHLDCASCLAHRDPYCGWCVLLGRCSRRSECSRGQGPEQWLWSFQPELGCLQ

human Plexin B1 [12] = molecular target: T2, human Plexin B1; test: SPR; remark: listed apart in the source
mouse Plexin B1 = molecular target: T3, mouse Plexin B1 (mouse, UniProt Q8CJH3 20-535, limits assumed); test: SPR
T3 sequence (looked up): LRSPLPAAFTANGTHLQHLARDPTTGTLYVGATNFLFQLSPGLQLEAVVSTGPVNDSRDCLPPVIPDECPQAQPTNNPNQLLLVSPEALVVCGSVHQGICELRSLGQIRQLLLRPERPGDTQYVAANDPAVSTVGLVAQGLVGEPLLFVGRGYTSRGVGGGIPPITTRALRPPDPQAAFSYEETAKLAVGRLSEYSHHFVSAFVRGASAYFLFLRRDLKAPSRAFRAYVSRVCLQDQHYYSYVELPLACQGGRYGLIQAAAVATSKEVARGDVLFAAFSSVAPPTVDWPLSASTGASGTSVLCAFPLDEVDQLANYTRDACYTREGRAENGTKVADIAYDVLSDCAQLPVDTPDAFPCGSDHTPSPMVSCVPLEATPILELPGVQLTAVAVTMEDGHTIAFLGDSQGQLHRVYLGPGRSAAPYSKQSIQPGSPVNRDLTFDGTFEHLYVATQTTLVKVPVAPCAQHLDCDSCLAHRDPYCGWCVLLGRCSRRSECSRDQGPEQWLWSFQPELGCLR

human Plexin B1 [13] = molecular target: T2, human Plexin B1; test: SPR; remark: listed apart in the source

CC[C@H](C)[C@@H]1NC(=O)[C@H](CCC(N)=O)NC(=O)CNC(=O)[C@H]([C@@H](C)O)NC(=O)[C@H](Cc2c[nH]c3ccccc23)NC(=O)[C@H](CCCNC(=N)N)NC(=O)[C@H](C)NC(=O)[C@H](C(C)C)NC(=O)[C@H](CCCNC(=N)N)NC(=O)[C@@H]2CCCN2C(=O)[C@H](CCCNC(=N)N)NC(=O)[C@@H](Cc2c[nH]c3ccccc23)NC(=O)CSC[C@@H](C(=O)N[C@@H](CO)C(N)=O)NC(=O)[C@H](Cc2ccc(O)cc2)NC(=O)[C@H]([C@@H](C)CC)NC1=O [P6, wRPRVARWTGQITYC] ({CH2CO}-[dW]RPRVARWTGQIIYCS-NH2; thioether N-15 (inferred); N-terminus and C-terminus assumed)
half-life [1]: 3 to 6 h

CC(C)[C@@H]1NC(=O)[C@H](Cc2ccc(O)cc2)NC(=O)[C@H](Cc2ccccc2)NC(=O)[C@H]([C@@H](C)O)NC(=O)CNC(=O)[C@H]([C@@H](C)O)NC(=O)[C@H](Cc2c[nH]c3ccccc23)NC(=O)[C@H](CCCNC(=N)N)NC(=O)[C@H](CC(=O)O)NC(=O)[C@H](Cc2ccc(O)cc2)NC(=O)[C@H](Cc2ccccc2)NC(=O)[C@H](Cc2c[nH]c3ccccc23)NC(=O)[C@H](CCCNC(=N)N)NC(=O)[C@@H](Cc2c[nH]c3ccccc23)NC(=O)CSC[C@@H](C(=O)NCC(N)=O)NC1=O [mp6-2, wRWFYDRWTGTFYVC] ({CH2CO}-[dW]RWFYDRWTGTFYVCG-NH2; thioether N-15)
interaction inhibiting activity between mouse Plexin B1 and Semaphorin 4D [2]: equivalent to that of the cyclic peptide P6

AVSNLPPRPHITYIE [P1]
Kd (Plexin B1 [3]): 0.014 s⁻¹ | Kd (Plexin B1 [4]): 700 nM | Ka (Plexin B1 [5]): 20000 M⁻¹ s⁻¹

NGTLSWQTYSHL [P8]
Kd (Plexin B1 [3]): 0.037 s⁻¹ | Kd (Plexin B1 [4]): 689 nM | Ka (Plexin B1 [5]): 53000 M⁻¹ s⁻¹

P6dPEG5: dimerized cyclic peptide P6 (FIG. 12b) ({CH2CO}-[dW]RPRVARWTGQIIYCS; thioether N-15; also: dimer: two units joined after S16 by PEG linkers)
kd (ms^-1) (Plexin B1 [6]): 0.447 ms^-1 | ka (Plexin B1 [7]): 1.18e+06 M⁻¹ s⁻¹

RPRAARWTGQIIY (not fully specified) [P5]
Kd (Plexin B1 [3]): 0.002 s⁻¹ | Kd (Plexin B1 [4]): 77.1 nM | Ka (Plexin B1 [5]): 21000 M⁻¹ s⁻¹

RVRVERWTGKLI (not fully specified) [P3]
Kd (Plexin B1 [3]): 0.144 s⁻¹ | Kd (Plexin B1 [4]): 33.7 nM | Ka (Plexin B1 [5]): 4.27e+06 M⁻¹ s⁻¹

wRPRVARWTGQITYC [P6]
kd (Plexin B1 [8]): 0.0151 s⁻¹ | Kd (Plexin B1 [9]): 3.81 nM | Kd (Plexin B1 [3]): 0.012 s⁻¹ | Kd (Plexin B1 [4]): 3.5 nM | Ka (Plexin B1 [5]): 3.46e+06 M⁻¹ s⁻¹ | Kd (Plexin B1 [10]): 3.34 nM

{CH2CO}-[dW]RVRVERWTGKLICS (thioether N-14) [SEQ ID NO 31]
Kd (human Plexin B1 [11]): 33.7 nM | koff (human Plexin B1 [11]): 0.144 s⁻¹ | kon (human Plexin B1 [11]): 4.27e+06 M⁻¹ s⁻¹

{CH2CO}-[dW]AVSNLPPRPHITYIECS (thioether N-17) [SEQ ID NO 40]
Kd (human Plexin B1 [11]): 700 nM | koff (human Plexin B1 [11]): 0.014 s⁻¹ | kon (human Plexin B1 [11]): 20000 M⁻¹ s⁻¹

{CH2CO}-[dW]LGYIARWTGTVVKCG (thioether N-15) [cyclic peptide mp6-3]
Kd (human Plexin B1 [12]): 241 nM | Kd (mouse Plexin B1): 227 nM

{CH2CO}-[dW]LAYIERWTGQIVRCG (thioether N-15) [cyclic peptide mp6-5]
Kd (human Plexin B1 [12]): 174 nM | Kd (mouse Plexin B1): 507 nM

{CH2CO}-[dW]RPRAARWTGQIIYCS (thioether N-15) [SEQ ID NO 37]
Kd (human Plexin B1 [11]): 77.1 nM | koff (human Plexin B1 [11]): 0.002 s⁻¹ | kon (human Plexin B1 [11]): 21000 M⁻¹ s⁻¹

{CH2CO}-[dW]NSNVLSWQTYSWYCS (thioether N-15) [SEQ ID NO 38]
Kd (human Plexin B1 [11]): 275 nM | koff (human Plexin B1 [11]): 0.01 s⁻¹ | kon (human Plexin B1 [11]): 38000 M⁻¹ s⁻¹

{CH2CO}-[dW]NGTLSWQTYSHLCS (thioether N-14) [SEQ ID NO 39]
Kd (human Plexin B1 [11]): 689 nM | koff (human Plexin B1 [11]): 0.037 s⁻¹ | kon (human Plexin B1 [11]): 53000 M⁻¹ s⁻¹

{CH2CO}-[dW]RPRVARWTGQIIYCS (thioether N-15) [SEQ ID NO 30]
Kd (human Plexin B1 [11]): 3.5 nM | koff (human Plexin B1 [11]): 0.012 s⁻¹ | kon (human Plexin B1 [11]): 3.46e+06 M⁻¹ s⁻¹

{CH2CO}-[dW]RPRVARWTGQIIYCS (thioether N-15; also: dimer, two units joined after S16 by PEG linkers, also called dimerized cyclic peptide P6) [P6dPEG5]
Kd (human Plexin B1 [13]): 0.38 nM | kon (human Plexin B1 [13]): 1.18e+06 M⁻¹ s⁻¹

{CH2CO}-[dW]RAFIERWTGRLVVCG (thioether N-15) [cyclic peptide mp6-7]
Kd (human Plexin B1 [12]): 4.58 nM | Kd (mouse Plexin B1): 126 nM
